Source: patent US6001988, “High affinity nucleic acid ligands to lectins” (NeXstar Pharmaceuticals, Inc.)

T1: wheat germ agglutinin (WGA) (Triticum vulgare, UniProt P10968 P10968:27-197)
T1 sequence: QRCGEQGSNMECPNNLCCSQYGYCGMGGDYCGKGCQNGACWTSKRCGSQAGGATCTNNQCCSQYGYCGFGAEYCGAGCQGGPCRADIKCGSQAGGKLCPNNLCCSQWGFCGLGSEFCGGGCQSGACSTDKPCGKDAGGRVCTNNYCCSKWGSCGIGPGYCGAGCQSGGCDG

T2: E-selectin (ES-Rg) (Homo sapiens, UniProt P16581 P16581:22-556)
T2 chain: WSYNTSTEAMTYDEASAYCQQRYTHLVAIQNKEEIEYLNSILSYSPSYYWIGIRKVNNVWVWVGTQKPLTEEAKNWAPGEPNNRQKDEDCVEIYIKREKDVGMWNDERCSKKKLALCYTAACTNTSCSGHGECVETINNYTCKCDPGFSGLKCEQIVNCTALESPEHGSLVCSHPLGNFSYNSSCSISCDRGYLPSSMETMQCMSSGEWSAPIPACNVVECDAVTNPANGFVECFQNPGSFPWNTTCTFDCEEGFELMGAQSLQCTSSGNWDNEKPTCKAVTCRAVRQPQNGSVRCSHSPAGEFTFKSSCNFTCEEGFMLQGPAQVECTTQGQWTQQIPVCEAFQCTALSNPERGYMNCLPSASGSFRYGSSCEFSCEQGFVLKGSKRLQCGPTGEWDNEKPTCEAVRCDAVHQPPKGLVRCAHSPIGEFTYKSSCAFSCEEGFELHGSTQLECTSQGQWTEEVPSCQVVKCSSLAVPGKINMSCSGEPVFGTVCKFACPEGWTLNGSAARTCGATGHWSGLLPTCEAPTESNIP

T3: P-selectin (PS-Rg) (Homo sapiens, UniProt P16109 P16109:42-321)
T3 chain: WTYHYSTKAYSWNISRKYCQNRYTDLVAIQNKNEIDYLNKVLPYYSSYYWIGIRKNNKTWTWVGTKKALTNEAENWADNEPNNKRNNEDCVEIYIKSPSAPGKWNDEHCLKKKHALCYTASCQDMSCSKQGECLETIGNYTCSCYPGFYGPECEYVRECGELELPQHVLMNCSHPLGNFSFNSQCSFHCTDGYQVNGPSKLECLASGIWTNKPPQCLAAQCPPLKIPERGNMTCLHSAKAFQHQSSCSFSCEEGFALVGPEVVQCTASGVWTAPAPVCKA

B1: 11.29 (ssRNA)
RNA: GGGAAAAGCGAAUCAUACACAAGAACUGAGUAAGGUCUGGCGUGGCAUUAGGUUAGUGGGAGGCUUGGAGUAGGCUCCGCCAGAGACCAACCGAGAA
modifications: 2'-NH2 all C and U
B2: 6.27 (ssRNA)
RNA: GGGAAAAGCGAAUCAUACACAAGAUGCCGGUGGAAAGGCGGGUAGGUGACCCGAGGAUUCCUACCAAGCCAUGCUCCGCCAGAGACCAACCGAGAA
modifications: 2'-NH2 all C and U
B3: 11.2 (ssRNA)
RNA: GGGAAAAGCGAAUCAUACACAAGACCAACGUACAUCGCGAGCUGGUGGAGAGUUCAUGAGGGUGUUACGGGGUGCUCCGCCAGAGACCAACCGAGAA
modifications: 2'-NH2 all C and U
B4: 6.19 (ssRNA)
RNA: GGGAAAAGCGAAUCAUACACAAGAAUCGAACCUAGGGAUGCAACGGUGAAGGUUGUGAGGAUUCGCCAUUAGGCGCUCCGCCAGAGACCAACCGAGAA
modifications: 2'-NH2 all C and U
B5: 6.3 (ssRNA)
RNA: GGGAAAAGCGAAUCAUACACAAGAGAUACAGCGCGGGUCUAAAGACCUUGCCCCUAGGAUGCAACGGGGUGGCUCCGCCAGAGACCAACCGAGAA
modifications: 2'-NH2 all C and U
B6: 6.5 (ssRNA)
RNA: GGGAAAAGCGAAUCAUACACAAGAGUCCCUAGGGAUGCAACGGGCAGCAUUCGCAUAGGAGUAAUCGGAGGUCGCUCCGCCAGAGACCAACCGAGAA
modifications: 2'-NH2 all C and U
B7: 11.8 (ssRNA)
RNA: GGGAAAAGCGAAUCAUACACAAGAAUGGUUGGCCUGGGCGCAGGCUUCGAAGACUCGGCGGGAACGGGAAUGGCUCCGCCAGAGACCAACCGAGAA
modifications: 2'-NH2 all C and U
B8: 11.26 (ssRNA)
RNA: GGGAAAAGCGAAUCAUACACAAGAUUGGGCAGGCAGAGCGAGACCGGGGGCUCGGCGGGAACGGAACAGGAAUGCUCCGCCAGAGACCAACCGAGAA
modifications: 2'-NH2 all C and U
B9: 11.5 (ssRNA)
RNA: GGGAAAAGCGAAUCAUACACAAGAACAAGGAUCGAUGGCGAGCCGGGGAGGGCUCGGCGGGAACGAAAUCUGCUCCGCCAGAGACCAACCGAGAA
modifications: 2'-NH2 all C and U
B10: 11.15 (ssRNA)
RNA: GGGAAAAGCGAAUCAUACACAAGACUCGGCGGGAACGAAAGUGUCAUGGUAGCAAGUCCAAUGGUGGACUCUGCUCCGCCAGAGACCAACCGAGAA
modifications: 2'-NH2 all C and U
B11: 11.34 (ssRNA)
RNA: GGGAAAAGCGAAUCAUACACAAGACUCGGCGGGAACGUGAAGUGGGUAGGUAGCUGAAGACGGUCUGGGCGCCAGCUCCGCCAGAGACCAACCGAGAA
modifications: 2'-NH2 all C and U
B12: 11.32 (ssRNA)
RNA: GGGAAAAGCGAAUCAUACACAAGACGUGCGGAGCAAAUAGGGGAUCAUGGAGUCGUACGAACCGUUAUCGCGCUCCGCCAGAGACCAACCGAGAA
modifications: 2'-NH2 all C and U
B13: 6.9 (ssRNA)
RNA: GGGAAAAGCGAAUCAUACACAAGACUCGGCGGGAACGAAGUGUGUGAGUAACGAUCACUUGGUACUAAAAGCCCGCUCCGCCAGAGACCAACCGAGAA
modifications: 2'-NH2 all C and U
B14: 11.6 (ssRNA)
RNA: GGGAAAAGCGAAUCAUACACAAGACUGGGGAGCAGGAUAUGAGAUGUGCGGGGCAAUGGAGUCGUGACGAACCGCUCCGCCAGAGACCAACCGAGAA
modifications: 2'-NH2 all C and U
B15: 6.23 (ssRNA)
RNA: GGGAAAAGCGAAUCAUACACAAGACUCGGCGGGAAUCGAAAGUGUACUGAAUUAGAACGGUGGGCCUGCUCAUCGUGCUCCGCCAGAGACCAACCGAGAA
modifications: 2'-NH2 all C and U
B16: 11.12 (ssRNA)
RNA: GGGAAAAGCGAAUCAUACACAAGACGGCUGUGUGUGGUAGCGUCAUAGUAGGAGUCGUCACGAACCAAGGCGCUCCGCCAGAGACCAACCGAGAA
modifications: 2'-NH2 all C and U
B17: 11.19 (ssRNA)
RNA: GGGAAAAGCGAAUCAUACACAAGAAAGGGAUGGGAUUGGGACGAGCGGCCAAGACUCGGCGGGAACGAAGGGUGCUCCGCCAGAGACCAACCGAGAA
modifications: 2'-NH2 all C and U
B18: 11.27 (ssRNA)
RNA: GGGAAAAGCGAAUCAUACACAAGACGAUGCGAGGCAAGAAAUGGAGUCGUUACGAACCCUCUUGCAGUGCGCGGCUCCGCCAGAGACCAACCGAGAA
modifications: 2'-NH2 all C and U
B19: 11.4 (ssRNA)
RNA: GGGAAAAGCGAAUCAUACACAAGACAGGCACUGAAAACUCGGCGGGAACGAAAGUAGUGCCGACUCAGACGCGUGCUCCGCCAGAGACCAACCGAGAA
modifications: 2'-NH2 all C and U
B20: 11.28 (ssRNA)
RNA: GGGAAAAGCGAAUCAUACACAAGAGUUGGUGCGAGCUGGGGCGGCGAGAAGGUAGGCGGUCCGAGUGUUCGAAUGCUCCGCCAGAGACCAACCGAGAA
modifications: 2'-NH2 all C and U
B21: 233 (ssDNA)
DNA: CTACCTACGATCTGACTAGCCACGACAGAGAACAAGGCGTTAGACGTTATCCGACCACGGCTTACTCTCATGTAGTTCC

These binders were tested against T1, wheat germ agglutinin (WGA) (assay: filter; HBSS, room temp). Settings: tags: free lectin, E Y Laboratories; label: 32P.
Method: (§1) The specifically eluted fraction was processed for use in the following round. Fractions eluted from immobilized WGA were heated at 90° C. for 5 minutes in 1% SDS, 2% β-mercaptoethanol and extracted with phenol/chloroform. RNA was reverse transcribed into cDNA by AMV reverse transcriptase at 48° C. for 60 min in 50 mM Tris-Cl pH (8.3), 60 mM NaCl, 6 mM Mg(OAc)_2, 10 mM DTT, 100 pmol DNA primer, 0.4 mM each of dNTPs, and 0.4 unit/µl AMV RT. […] C) Nitrocellulose Filter Partitioning As described in SELEX Patent Applications, the nitrocellulose filter partitioning method was used to determine the affinity of RNA ligands for WGA and for other proteins. Filter discs (nitrocellulose/cellulose acetate mixed matrix, 0.45 µm pore size, Millipore; or pure nitrocellulose, 0.45 µm pore size, Bio-Rad) were placed on a vacuum manifold and washed with 4 ml of HBSS buffer under vacuum. Reaction mixtures, containing ^32P labeled RNA pools and unlabeled WGA, were incubated in HBSS for 10 min at room temperature, filtered, and then immediately washed with 4 ml HBSS. The filters were air-dried and counted in a Beckman LS6500 liquid scintillation counter without fluor. WGA is a homodimer, molecular weight 43.2 kD, with 4 GlcNAc binding sites per dimer. For affinity calculations, we assume one RNA ligand binding site per monomer (two per dimer). The monomer concentration is defined as 2 times the dimer concentration. The equilibrium dissociation constant, K_d, for an RNA pool or specific ligand that binds monophasically is given by the equation $$K_d=[P_f][R_f]/[RP]$$
The dissociation constants for representative members of families 1–9 and orphan ligands were determined by nitrocellulose filter binding experiments and are listed in Table III. These calculations assume one RNA ligand binding site per WGA monomer.
Work on B1 yielded a Kd of 32 nM.
Work on B2 yielded a Kd of 56 nM.
B3 gave a Kd of 62 nM.
B4 showed a Kd of 74 nM.
Work on B5 yielded a Kd of 120 nM.
Work on B6 yielded a Kd of 678 nM.

Same assay, conditions: tags: free lectin, E Y Laboratories; label: 32P; hairpin
B7 gave a Kd of 9.2 nM.
Work on B8 yielded a Kd of 38 nM.
B9 was tested, and the Kd was 44 nM.
B10 showed a Kd of 54 nM.
For B11, the Kd was 92 nM.
B12 was tested, and the Kd was 274 nM.
For B13, the Kd was 396 nM.
Binder B14 has a Kd of 702 nM.
B15 gave a Kd of 824 nM.
For B16, the Kd was 15.2 nM.
For B17, the Kd was 22 nM.
B18 showed a Kd of 30 nM.
Work on B19 yielded a Kd of 32 nM.

Same assay, conditions: tags: free lectin, E Y Laboratories; label: 32P; possible G-quartet (speculative)
Binder B20 has a Kd of 9.2 nM.

Molecular target: T2, E-selectin (ES-Rg)
Test: filter; room temp, Ca/Mg buffer
Settings: tags: extracellular domain fused to human IgG1 Fc (provided by A. Varki); chain copies: 2 (dimeric Fc chimera, inferred)
Method: as §1, with “RNA” for “The specifically eluted fraction was processed for use in the following round. Fractions eluted from immobilized WGA were heated at 90° C. for 5 minutes in 1% SDS, 2% β-mercaptoethanol and extracted with phenol/chloroform. RNA”
(§2) The affinity of representative cloned ligands for LS-Rg, ES-Rg, PS-Rg, CD22β-Rg and WGA was determined by nitrocellulose partitioning and the results shown in Table XIV. The ligands are highly specific for L-selectin.
(§3) *Kds were determined at room temperature.
In the case of B21, the Kd is reported as 39 nM.

Molecular target: T3, P-selectin (PS-Rg)
Test: filter; room temp, Ca/Mg buffer
Settings: tags: lectin, EGF and first two CRD domains fused to human IgG1 Fc (provided by A. Varki); chain copies: 2 (dimeric Fc chimera, inferred)
Method: as §1, with “RNA” for “The specifically eluted fraction was processed for use in the following round. Fractions eluted from immobilized WGA were heated at 90° C. for 5 minutes in 1% SDS, 2% β-mercaptoethanol and extracted with phenol/chloroform. RNA”
as §2, §3
Binder B21 has a Kd of 420 nM.
